How the values were obtained:
[1] = biological target: S. mansoni neuropeptide NPP2a, membrane-anchored ligand fusion (linker-WBP1 TMP-Cub-GAL4) (S. mansoni); assay: two-hybrid; MALAR-Y2H; β-galactosidase (ONPG) assay of diploid cells, lysate incubated 30 min at 30°C, OD405, Miller Units, mean of two clones
[2] = biological target: CXC-motif chemokine ligand 12 (CXCL12), membrane-anchored ligand fusion (Cub-GAL4); assay: as above

Chain of mouse receptor CXCR4, NubG fusion (positive control) (P70658 whole entry, the tested form may be a part): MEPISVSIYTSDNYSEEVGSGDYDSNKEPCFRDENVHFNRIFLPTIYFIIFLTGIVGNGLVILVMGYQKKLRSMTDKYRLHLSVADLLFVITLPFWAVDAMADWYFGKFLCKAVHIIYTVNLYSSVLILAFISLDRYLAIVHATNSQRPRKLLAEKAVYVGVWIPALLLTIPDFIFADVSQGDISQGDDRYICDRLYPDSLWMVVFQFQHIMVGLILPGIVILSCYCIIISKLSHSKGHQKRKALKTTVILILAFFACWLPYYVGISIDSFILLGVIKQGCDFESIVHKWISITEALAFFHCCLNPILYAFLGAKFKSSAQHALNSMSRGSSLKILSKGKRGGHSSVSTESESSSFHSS

Schistosoma mansoni G protein-coupled receptor GPCR14 (Smp_203500), fused to NubG
Miller units (β-Gal activity) [1]: 2.68 Miller units

mouse receptor CXCR4, NubG fusion (positive control)
Miller units (β-Gal activity) [2]: 3.07 Miller units
